# Laboratory results as given in the Human Domainome abundance scans (Beltran et al. 2025).
# ± gives the uncertainty stated by the source.
# Assay: abundance fitness (aPCA) (normalised: wild type 0, dead -1); higher = more abundant; growth selection in yeast, the domain comes from the species named
# Conditions: Homo sapiens
row,Substance,abundance fitness
1,"Heterogeneous nuclear ribonucleoprotein U-like protein 2 A30M, Q1KMD3",0.067 ± 0.084
2,"Heterogeneous nuclear ribonucleoprotein U-like protein 2 A39E, Q1KMD3",-0.015 ± 0.064
3,"Heterogeneous nuclear ribonucleoprotein U-like protein 2 D21S, Q1KMD3",-0.165 ± 0.066
4,"Heterogeneous nuclear ribonucleoprotein U-like protein 2 E35A, Q1KMD3",0.036 ± 0.052
5,"Heterogeneous nuclear ribonucleoprotein U-like protein 2 Q16K, Q1KMD3",0.049 ± 0.092
6,"Heterogeneous nuclear ribonucleoprotein U-like protein 2 Q31D, Q1KMD3",-0.194 ± 0.11
7,"Heterogeneous nuclear ribonucleoprotein U-like protein 2 S13D, Q1KMD3",0.114 ± 0.067
8,"Heterogeneous nuclear ribonucleoprotein U-like protein 2 S22D, Q1KMD3",0.187 ± 0.09
9,"Heterogeneous nuclear ribonucleoprotein U-like protein 2 V27A, Q1KMD3",0.131 ± 0.053
10,"NEDD4-like E3 ubiquitin-protein ligase WWP2 A445C, O00308",0.056 ± 0.03
11,"NEDD4-like E3 ubiquitin-protein ligase WWP2 A445D, O00308",0.121 ± 0.078
12,"NEDD4-like E3 ubiquitin-protein ligase WWP2 A445E, O00308",0.025 ± 0.05
13,"NEDD4-like E3 ubiquitin-protein ligase WWP2 A445F, O00308",0.007 ± 0.035
14,"NEDD4-like E3 ubiquitin-protein ligase WWP2 A445H, O00308",0.069 ± 0.081
15,"NEDD4-like E3 ubiquitin-protein ligase WWP2 A445I, O00308",-0.016 ± 0.049
16,"NEDD4-like E3 ubiquitin-protein ligase WWP2 A445K, O00308",-0.01 ± 0.074
17,"NEDD4-like E3 ubiquitin-protein ligase WWP2 A445L, O00308",0 ± 0.039
18,"NEDD4-like E3 ubiquitin-protein ligase WWP2 A445M, O00308",-0.073 ± 0.052
19,"NEDD4-like E3 ubiquitin-protein ligase WWP2 A445N, O00308",0.103 ± 0.073
20,"NEDD4-like E3 ubiquitin-protein ligase WWP2 A445P, O00308",-0.14 ± 0.07
21,"NEDD4-like E3 ubiquitin-protein ligase WWP2 A445Q, O00308",0.031 ± 0.049
22,"NEDD4-like E3 ubiquitin-protein ligase WWP2 A445R, O00308",0.077 ± 0.039

row,Substance,abundance fitness
1,"NEDD4-like E3 ubiquitin-protein ligase WWP2 A445S, O00308",0.04 ± 0.048
2,"NEDD4-like E3 ubiquitin-protein ligase WWP2 A445T, O00308",-0.211 ± 0.073
3,"NEDD4-like E3 ubiquitin-protein ligase WWP2 A445V, O00308",-0.001 ± 0.06
4,"NEDD4-like E3 ubiquitin-protein ligase WWP2 A445W, O00308",-0.074 ± 0.062
5,"NEDD4-like E3 ubiquitin-protein ligase WWP2 A445Y, O00308",-0.002 ± 0.048
6,"NEDD4-like E3 ubiquitin-protein ligase WWP2 A490C, O00308",-0.01 ± 0.051
7,"NEDD4-like E3 ubiquitin-protein ligase WWP2 A490D, O00308",0.001 ± 0.061
8,"NEDD4-like E3 ubiquitin-protein ligase WWP2 A490E, O00308",0.024 ± 0.062
9,"NEDD4-like E3 ubiquitin-protein ligase WWP2 A490F, O00308",-0.081 ± 0.051
10,"NEDD4-like E3 ubiquitin-protein ligase WWP2 A490G, O00308",-0.007 ± 0.039
11,"NEDD4-like E3 ubiquitin-protein ligase WWP2 A490H, O00308",-0.316 ± 0.078
12,"NEDD4-like E3 ubiquitin-protein ligase WWP2 A490I, O00308",0.089 ± 0.077
13,"NEDD4-like E3 ubiquitin-protein ligase WWP2 A490K, O00308",0.007 ± 0.037
14,"NEDD4-like E3 ubiquitin-protein ligase WWP2 A490L, O00308",-0.047 ± 0.037
15,"NEDD4-like E3 ubiquitin-protein ligase WWP2 A490M, O00308",0.033 ± 0.053
16,"NEDD4-like E3 ubiquitin-protein ligase WWP2 A490N, O00308",-0.195 ± 0.082
17,"NEDD4-like E3 ubiquitin-protein ligase WWP2 A490P, O00308",-0.128 ± 0.065
18,"NEDD4-like E3 ubiquitin-protein ligase WWP2 A490Q, O00308",0.029 ± 0.069
19,"NEDD4-like E3 ubiquitin-protein ligase WWP2 A490R, O00308",-0.047 ± 0.035
20,"NEDD4-like E3 ubiquitin-protein ligase WWP2 A490S, O00308",-0.013 ± 0.048
21,"NEDD4-like E3 ubiquitin-protein ligase WWP2 A490V, O00308",-0.05 ± 0.032
22,"NEDD4-like E3 ubiquitin-protein ligase WWP2 A490W, O00308",-0.185 ± 0.046

row,Substance,abundance fitness
1,"NEDD4-like E3 ubiquitin-protein ligase WWP2 A490Y, O00308",-0.09 ± 0.061
2,"NEDD4-like E3 ubiquitin-protein ligase WWP2 D464A, O00308",-0.797 ± 0.036
3,"NEDD4-like E3 ubiquitin-protein ligase WWP2 D464C, O00308",-0.438 ± 0.074
4,"NEDD4-like E3 ubiquitin-protein ligase WWP2 D464E, O00308",-0.372 ± 0.047
5,"NEDD4-like E3 ubiquitin-protein ligase WWP2 D464F, O00308",-0.903 ± 0.12
6,"NEDD4-like E3 ubiquitin-protein ligase WWP2 D464I, O00308",-1.28 ± 0.14
7,"NEDD4-like E3 ubiquitin-protein ligase WWP2 D464K, O00308",-0.972 ± 0.11
8,"NEDD4-like E3 ubiquitin-protein ligase WWP2 D464N, O00308",-0.138 ± 0.073
9,"NEDD4-like E3 ubiquitin-protein ligase WWP2 D464P, O00308",-0.921 ± 0.15
10,"NEDD4-like E3 ubiquitin-protein ligase WWP2 D464Q, O00308",-0.508 ± 0.075
11,"NEDD4-like E3 ubiquitin-protein ligase WWP2 D464R, O00308",-0.94 ± 0.041
12,"NEDD4-like E3 ubiquitin-protein ligase WWP2 D464S, O00308",-0.565 ± 0.056
13,"NEDD4-like E3 ubiquitin-protein ligase WWP2 D464V, O00308",-1.03 ± 0.061
14,"NEDD4-like E3 ubiquitin-protein ligase WWP2 D464W, O00308",-1.21 ± 0.14
15,"NEDD4-like E3 ubiquitin-protein ligase WWP2 D464Y, O00308",-0.693 ± 0.12
16,"NEDD4-like E3 ubiquitin-protein ligase WWP2 D474A, O00308",-0.168 ± 0.037
17,"NEDD4-like E3 ubiquitin-protein ligase WWP2 D474C, O00308",-0.288 ± 0.057
18,"NEDD4-like E3 ubiquitin-protein ligase WWP2 D474E, O00308",-0.192 ± 0.074
19,"NEDD4-like E3 ubiquitin-protein ligase WWP2 D474F, O00308",-0.376 ± 0.086
20,"NEDD4-like E3 ubiquitin-protein ligase WWP2 D474H, O00308",-0.095 ± 0.097
21,"NEDD4-like E3 ubiquitin-protein ligase WWP2 D474I, O00308",-0.069 ± 0.092
22,"NEDD4-like E3 ubiquitin-protein ligase WWP2 D474K, O00308",-0.505 ± 0.14

row,Substance,abundance fitness
1,"NEDD4-like E3 ubiquitin-protein ligase WWP2 D474L, O00308",-0.326 ± 0.061
2,"NEDD4-like E3 ubiquitin-protein ligase WWP2 D474M, O00308",-0.224 ± 0.063
3,"NEDD4-like E3 ubiquitin-protein ligase WWP2 D474N, O00308",-0.332 ± 0.065
4,"NEDD4-like E3 ubiquitin-protein ligase WWP2 D474P, O00308",-0.332 ± 0.085
5,"NEDD4-like E3 ubiquitin-protein ligase WWP2 D474Q, O00308",-0.279 ± 0.073
6,"NEDD4-like E3 ubiquitin-protein ligase WWP2 D474R, O00308",-0.19 ± 0.039
7,"NEDD4-like E3 ubiquitin-protein ligase WWP2 D474S, O00308",-0.406 ± 0.061
8,"NEDD4-like E3 ubiquitin-protein ligase WWP2 D474T, O00308",-0.442 ± 0.079
9,"NEDD4-like E3 ubiquitin-protein ligase WWP2 D474V, O00308",-0.387 ± 0.067
10,"NEDD4-like E3 ubiquitin-protein ligase WWP2 D474W, O00308",-0.253 ± 0.048
11,"NEDD4-like E3 ubiquitin-protein ligase WWP2 D474Y, O00308",-0.251 ± 0.097
12,"NEDD4-like E3 ubiquitin-protein ligase WWP2 D492A, O00308",-0.174 ± 0.054
13,"NEDD4-like E3 ubiquitin-protein ligase WWP2 D492C, O00308",-0.146 ± 0.061
14,"NEDD4-like E3 ubiquitin-protein ligase WWP2 D492E, O00308",0.039 ± 0.065
15,"NEDD4-like E3 ubiquitin-protein ligase WWP2 D492F, O00308",-0.217 ± 0.044
16,"NEDD4-like E3 ubiquitin-protein ligase WWP2 D492G, O00308",-0.158 ± 0.051
17,"NEDD4-like E3 ubiquitin-protein ligase WWP2 D492I, O00308",-0.212 ± 0.057
18,"NEDD4-like E3 ubiquitin-protein ligase WWP2 D492K, O00308",0.029 ± 0.074
19,"NEDD4-like E3 ubiquitin-protein ligase WWP2 D492L, O00308",-0.149 ± 0.061
20,"NEDD4-like E3 ubiquitin-protein ligase WWP2 D492N, O00308",-0.137 ± 0.069
21,"NEDD4-like E3 ubiquitin-protein ligase WWP2 D492P, O00308",-0.249 ± 0.076
